Measurements as given in US7135457B1, “Random peptides that bind to gastro-intestinal tract (GIT) transport receptors and related methods” (Cytogen Corporation, priority 1997, dated 2006).

Key:
[1] = biological target: BSA (Bos taurus, UniProt P02769); assay: Phage ELISA on BSA (background control protein); type: binding; conditions: Table 4
Experimental: 96 well plates were coated overnight with GIT receptor, BSA and, optionally, IDE (insulin degrading enzyme, an irrelevant His-fusion protein) or hTF. The plates were blocked for one hour with 0.5% BSA-PBS. After clarification, the amplified phage were diluted 1:100 in 1% BSA plus 0.05% Tween 20 in PBS and added to the plates. Following incubation of the plates on a rotator for 1 to 2 hours, the plates were washed 5 times with 1% BSA plus 0.05% Tween 20 in PBS. Dilute anti-M13-HRP conjugate (anti-M13 antibody linked to horse radish peroxidase (HRP)) was added to all the wells and the plate was incubated for one hour on a rotator. After the plates were washed 5 times, as described above, TMB substrate was added to the wells. The plates were read at 650 nm absorbance.

[2] = Drug potency, peptide loading and size of coacervated particles; type: physicochemical; conditions: formulation 1 particles (coacervation), blend
[3] = Experimental: In particular, phages selected in vitro to each receptor or binding site located in the GIT were amplified in E. coli, PEG-precipitated, resuspended in TBS and the titer of each phage sample was determined by plaquing in E. coli as described above. […] Using the in situ loop model described above, 0.5 ml of preselected phage library solution was injected into the tied-off portion of the duodenum/jejunum. Blood was collected into heparinized tubes from the portal vein at 0, 15, 30, 45 and 60 minutes. A blood sample was taken from the systemic circulation at the end of the experiment. Similarly, the portion of the duodenum/jejunum used for phage injection was taken at the end of the experiment.
Thirty microliters of the collected portal blood (neat and 10^−2, 10^−4, 10^−6 dilutions) was added to 30 μl E. coli K91Kan cells (overnight culture) and incubated at 37° C. for 10 min. Subsequently, 3 ml of top agarose was added and the samples were plated for plaques. One hundred microliters of the collected portal blood was added to 100 μl of E. coli K91Kan. Five milliliters of LB medium was then added and the samples were incubated at 37° C. overnight in a rotating microbial incubator. The E. coli was removed by centrifugation and the amplified phage supernatant samples were either titered directly or were PEG-precipitated, resuspended in TBS and titered. Following titration of the amplified phage, samples containing phage from each set of animals were combined, adjusting the titer of each sample to the same titer, and were plated for plaques on LB agar plates (22 cm^2 square plates). Either 12,000 or 24,000 phage were plated for plaques.
Thirty microliters of the collected systemic blood (neat and 10^−2, 10^−4, 10^−6 dilutions) was added to E. coli K91Kan cells, incubated at 37° C. for 10 min. Three ml of top agarose was then added and the samples were plated for plaques. One hundred microliters of the collected systemic blood was added to 100 μl of E. coli K91Kan, incubated at 37° C. for 10 min. Five milliliters of LB medium was then added and the samples were incubated at 37° C. overnight in a rotating microbial incubator. The E. coli was removed by centrifugation and the amplified phage supernatant samples were either titered directly or were PEG-precipitated, resuspended in TBS and titered. Following titration of the amplified phage, samples containing phage from each set of animals were combined, adjusting the titer of each sample to the same titer, and were plated for plaques on LB agar plates (22 cm^2 square plates). Either 12,000 or 24,000 phage were plated for plaques. The intestinal tissue portion used in each closed loop was excised. […] Alternatively, the tissue (in PBS supplemented with protease inhibitors) was homogenized in an Ultra Thorex homogenizer, washed 3 times in PBS containing protease inhibitors and resuspended in PBS containing protease inhibitors (Int-G samples). In each case, serial dilutions (neat and 10^−2, 10^−4, 10^−6 dilutions) of the tissue homogenate was titered in E. coli.
The phage amplified from the portal blood, systemic blood and intestinal tissue was plated for plaques. […] The filters were air-dried, and the DNA was cross-linked to the filter (UV crosslinking: 2 min, high setting). The filters were incubated in pre-hybridization buffer (6×SSC, 5×Denhardt's solution, 0.1% SDS, 20 μg/ml yeast tRNA) at 40° C.-45° C. for at least 60 min.
Synthetic oligonucleotides, (22-mers), complimentary to regions coding for the receptor or binding sites used to create the preselected phage library, were synthesized (see Table 14 below).
The oligonucleotides (5 pmol) were 5′ end labelled with ^32P-ATP and T4 polynucleotide kinase and approximately 2.5 pmol of labelled oligonucleotide was used in hybridization studies. […] The filters were air-dried and exposed for autoradiography for 15 hours, 24 hours or 72 hours.
Hybridization data for pools from each receptor group of rats was compiled.

[4] = biological target: T1, hPEPT1 (Homo sapiens, UniProt P46059); assay: Receptor ELISA of phage on hPEPT1; type: binding; conditions: Table 4; ratio
T1 construct: 391-571; made in house
T1 sequence (P46059 391-571): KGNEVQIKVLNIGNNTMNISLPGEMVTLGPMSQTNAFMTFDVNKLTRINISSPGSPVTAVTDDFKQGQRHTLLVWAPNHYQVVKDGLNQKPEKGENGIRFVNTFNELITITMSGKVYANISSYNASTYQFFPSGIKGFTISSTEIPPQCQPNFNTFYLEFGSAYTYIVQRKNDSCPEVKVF
Experimental: The plates were blocked for one hour with 0.5% BSA-PBS. After clarification, the amplified phage were diluted 1:100 in 1% BSA plus 0.05% Tween 20 in PBS and added to the plates. Following incubation of the plates on a rotator for 1 to 2 hours, the plates were washed 5 times with 1% BSA plus 0.05% Tween 20 in PBS. […] After the plates were washed 5 times, as described above, TMB substrate was added to the wells. The plates were read at 650 nm absorbance.

Sequence of BSA (P02769 25-607): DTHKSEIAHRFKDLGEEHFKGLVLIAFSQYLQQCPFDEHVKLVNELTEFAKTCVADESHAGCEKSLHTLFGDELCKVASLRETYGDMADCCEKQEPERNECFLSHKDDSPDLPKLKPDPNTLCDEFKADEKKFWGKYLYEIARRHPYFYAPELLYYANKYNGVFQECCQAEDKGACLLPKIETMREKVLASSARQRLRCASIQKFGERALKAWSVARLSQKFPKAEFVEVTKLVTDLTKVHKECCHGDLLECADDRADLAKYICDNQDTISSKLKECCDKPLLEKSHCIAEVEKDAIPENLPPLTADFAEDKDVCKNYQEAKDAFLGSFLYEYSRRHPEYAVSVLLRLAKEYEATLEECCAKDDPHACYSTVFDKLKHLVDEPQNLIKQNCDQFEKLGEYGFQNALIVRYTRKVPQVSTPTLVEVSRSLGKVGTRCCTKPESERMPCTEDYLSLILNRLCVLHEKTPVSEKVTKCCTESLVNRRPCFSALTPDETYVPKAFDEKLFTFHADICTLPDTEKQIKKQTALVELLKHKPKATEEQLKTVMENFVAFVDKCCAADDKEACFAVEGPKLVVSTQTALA

Sequence: RGSTGTAGGERSGVLNLHTRDNASGSGFKPWYPSNRGHK [Peptide 5PAX5]
- BSA [1]: 0.036 OD
- Insulin (insulin potency) ([2]; coated with the named peptide): 52.7 mg/g
- Peptide (level of peptide coated onto the particles) ([2]; measured by fluorescence): 2.83 µL/mg
- presence in the systemic circulation (in words) ([3]; text summary of HPT1 and hPEPT1 pools): found in the systemic circulation
- transport from the GIT closed loop into the portal circulation (in words) ([3]; text summary of hSI, D2H, HPT1, hPEPT1 pools): not found in the portal blood
- presence in the intestine samples or fractions (in words) ([3]; text summary of the four pools): not found in the intestine samples
- PEPT1/BSA [4]: 4
